The target of test [1] is LTβR on the surface of human cells (HT29, NHDF) (human) (UniProt P36941). The test is described as follows: cell-based or functional assay.
In test [2] the target is HVEM:Fc fusion protein (extracellular region of HVEM, 1 to K184, fused to the Fc of human IgG1) (human) (UniProt Q92956). The test is described as follows: SPR (BIAcore 1000).
For test [3] the target is unchanged. The test is described as follows: SPR (BIAcore 1000), receptor:Fc amine-coupled to CM5, LIGHT mutant as analyte. In general terms: In SPR one partner is held on a chip, and binding of the other changes the refractive index at the surface.
Test [4] has as its target p30 (LIGHT), the 30 kDa cell surface HVEM ligand of activated II-23.D7 T hybridoma cells and human T cells (human) (UniProt O43557). The experiment in a line: competition flow cytometry: II-23.D7 cells activated with PMA and ionomycin, pre-incubated with the Fc protein, then HVEM:Fc-rabbit 2 µg/ml, goat anti-rabbit IgG-PE; competitor displaced: HVEM:rbFc [lower graph].
The target of test [5] is mouse HVEM:Fc (extracellular region of mouse HVEM, Met1 to Ser205, fused to the Fc of human IgG1) (mouse; human) (UniProt Q80WM9). The test is described as follows: ELISA, receptor:Fc coated as capture (150 ng/well), FLAG-tagged ligand, M2 anti-FLAG and goat anti-mouse HRP, OD 415 [panel mouse HVEM:Fc]. For orientation: ELISA stands for enzyme-linked immunosorbent assay.
In the next test the target is human LTβR:Fc (human) (UniProt P36941). The experiment in a line: SPR (BIAcore 1000), receptor:Fc amine-coupled to CM5, LIGHT mutant as analyte.
The target in test [6] is HVEM:Fc fusion protein (extracellular region of HVEM, 1 to K184, fused to the Fc of human IgG1) (human) (UniProt Q92956). The test is described as follows: ELISA, receptor:Fc coated as capture (150 ng/well), FLAG-tagged ligand, M2 anti-FLAG and goat anti-mouse HRP, OD 415 [panel human HVEM:Fc].
Test [7] addresses T1, HVEM:Fc fusion protein (extracellular region of HVEM, 1 to K184, fused to the Fc of human IgG1) (human, UniProt Q92956 39-184).
T1 construct: range 1-184; Made in the baculovirus vector pVL1392; Residues 1-184 include the signal peptide; also called huHVEM:Fc; hu HVEM:Fc; not shown: Fc of human IgG1
T1 sequence (looked up): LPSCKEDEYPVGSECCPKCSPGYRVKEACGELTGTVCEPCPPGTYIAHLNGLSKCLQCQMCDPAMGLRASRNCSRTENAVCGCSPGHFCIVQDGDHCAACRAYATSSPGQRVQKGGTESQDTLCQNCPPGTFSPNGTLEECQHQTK
The test is described as follows: competition flow cytometry: HVEM:Fc 2 µg/ml pre-incubated with the gD-1 protein 30 min at 4 C, then added to II-23.D7 cells activated with PMA and ionomycin (p30 on the cells) [lower graph]. A general note: In flow cytometry, cells or beads pass a laser one at a time.

A value given as a limit tells only on which side of the number the result lay.

Sequence of p30 (LIGHT), the 30 kDa cell surface HVEM ligand of activated II-23.D7 T hybridoma cells and human T cells (human) (O43557 whole entry, the tested form may be a part): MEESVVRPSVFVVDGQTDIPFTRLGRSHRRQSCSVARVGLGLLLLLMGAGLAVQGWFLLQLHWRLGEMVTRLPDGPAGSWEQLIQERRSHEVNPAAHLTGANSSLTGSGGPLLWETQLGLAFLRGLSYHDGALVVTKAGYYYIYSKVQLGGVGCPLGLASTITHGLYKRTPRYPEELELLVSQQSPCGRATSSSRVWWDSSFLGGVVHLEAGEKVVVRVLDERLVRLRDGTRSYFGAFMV

In test [1], LIGHTt66-FLAG mutant G119E (ligand) yielded an up-regulation of ICAM expression by NHDF cells (fold induction, flow cytometry) of under 1.5 fold. The molecule further gave a fold lower affinity than LIGHT t66 in test [2] of 30 fold. For the same molecule, in test [3], the dissociation constant Kd (commonly the equilibrium constant for the complex coming apart) amounted to 114 nM; the off-rate constant (koff) (usually the rate constant with which the complex falls apart) came to 0.002 s⁻¹; the kon – broadly, the second-order rate constant of association – is 18000 M⁻¹ s⁻¹.
“LTβR:Fc (as printed in Examples 1 to 4; human or mouse not said) (Fc fusion)” had an IC50 (read off the curve) in test [4] of 10 µg/mL.
Consider LIGHTt66-FLAG mutant Q117T (ligand), for which the 50% cell death of HT29 cells (MTT, 72 h, with IFNγ) in test [1] turned out to be 10 µM. Moreover, in test [5], the EC50 (read off the curve) (usually the concentration giving half of the maximal effect) was 0.9 nM. In the test with human LTβR:Fc (human), this molecule registered a Kd of 1.5 nM and a koff of 4.5e-05 s⁻¹. Moreover, in test [3], the equilibrium dissociation constant (Kd) was found to be 0.3 nM and the kon came to 20000 M⁻¹ s⁻¹.
As for LIGHTt66-FLAG mutant Y173F (ligand), in test [1], the 50% cell death of HT29 cells (MTT, 72 h, with IFNγ) was 0.001 µM and the up-regulation of ICAM expression by NHDF cells (fold induction, flow cytometry) stood at 2.5 fold. In addition, in test [2], the Kd was 180 nM and the fold lower affinity than LIGHT t66 is over 40 fold. In the test with human LTβR:Fc (human), this molecule displayed a Kd of 31 nM, a koff of 0.0011 s⁻¹ and a kon of 37000 M⁻¹ s⁻¹. In test [3], the Kd was 173 nM, the koff worked out at 0.0033 s⁻¹ and the kon came out at 19000 M⁻¹ s⁻¹.
Take LIGHTt66-FLAG mutant L120Q (ligand): the 50% cell death of HT29 cells (MTT, 72 h, with IFNγ) in test [1] was determined as 10 µM. Further, the 50% effective concentration (EC50 (read off the curve)) in test [6] worked out at 0.08 nM.

B1: gD-1 (Δ290-299t), mutant of soluble HSV gD-1 (ligand)
chain: KYALVDASLKMADPNRFRGKDLPVLDQLTDPPGVRRVYHIQAGLPDPFQPPSLPITVYYAVLERACRSVLLNAPSEAPQIVRGASEDVRKQPYNLTIAWFRMGGNCAIPITVMEYTECSYNKSLGACPIRTQPRWNYYDSFSAVSEDNLGFLMHAPAFETAGTYLRLVKINDWTEITQFILEHRAKGSCKYALPLRIPPSACLSPQAYQQGVTVDSIGMLPRFIPENQRTVAVYSLKIAGWHGPKAPYTSTLLPPELSETPNATQPELAPEDPEDSALLEDPVGTVAPQQDAATPY
On to B1, for which the “IC50 (read off the curve)” value in test [7] was about 6 µg/mL.

B2: soluble HSV gD-1 (glycoprotein D of HSV-1) (ligand)
chain: KYALVDASLKMADPNRFRGKDLPVLDQLTDPPGVRRVYHIQAGLPDPFQPPSLPITVYYAVLERACRSVLLNAPSEAPQIVRGASEDVRKQPYNLTIAWFRMGGNCAIPITVMEYTECSYNKSLGACPIRTQPRWNYYDSFSAVSEDNLGFLMHAPAFETAGTYLRLVKINDWTEITQFILEHRAKGSCKYALPLRIPPSACLSPQAYQQGVTVDSIGMLPRFIPENQRTVAVYSLKIAGWHGPKAPYTSTLLPPELSETPNATQPELAPEDPEDSALLEDPVGTVAPQIPPNWHIPSIQDAATPY
Consider B2, for which the “IC50 (read off the curve)” value in test [7] is about 20 µg/mL.

For the origin of these results see patent publication US20030060605A1 (LA JOLLA INSTITUTE FOR ALLERGY AND IMMUNOLOGY, published 2003).
